Sequences and labels used below:
B1: MBP-Vac17(H) [budding yeast] / Strep II-Myo2(1150–1567) [budding yeast] (parent complex)
chain 1: MATQALEDITERLLIRSQEAILQLDLWIQRQQRSSICQTTDQESLDKLSQQYNQYMSQLNSLYVRSESVRDKLSKEQQRRLITEDNEHQRIEDLVREFQDITLRLNELA
chain 2: GVNATQINEELYRLLEDTEILNQEITEGLLKGFEVPDAGVAIQLSKRDVVYPARILIIVLSEMWRFGLTKQSESFLAQVLTTIQKVVTQLKGNDLIPSGVFWLANVRELYSFVVFALNSILTEETFKNGMTDEEYKEYVSLVTELKDDFEALSYNIYNIWLKKLQKQLQKKAINAVVISESLPGFSAGETSGFLNKIFANTEEYTMDDILTFFNSIYWCMKSFHIENEVFHAVVTTLLNYVDAICFNELIMKRNFLSWKRGLQLNYNVTRLEEWCKTHGLTDGTECLQHLIQTAKLLQVRKYTIEDIDILRGICYSLTPAQLQKLISQYQVADYESPIPQEILRYVADIVKKEAALSSSGNDSKGHEHSSSIFITPETGPFTDPFSLIKTRKFDQVEAYIPAWLSLPSTKRIVDLVAQ

The variants in this assay derive from B1. Description: pull-down; Strep II-Myo2 tail co-expressed with MBP-Vac17(H) and immobilized on Strep-Tactin beads; normalized to Vac17 and Myo2 input levels; parent: 1; read off a plot.
As to chain 2 GVNATQINEELYRLLEDTEILNQEITEGLLKGFEVPDAGVAIQLSKRDVVYPARILIIVLSEMWRFGLTKQSESFLAQVLTTIQKVVTQLKGNDLIPSGVFWLANVRELYSFVVFALNSILTEETFKNGMTDEEYKEYVSLVTELKDDFEALSYNIYNIWLKKLQKQLQKKAINAVVISESLPGFSAGETSGFLNKIFANTEEYTMDDILTFFNSIYWCMKSFHIENEVFHAVVTTLLNYVDAICFNELIMKRNFLSWARGLQLNYNVTRLEEWCKTHGLTDGTECLQHLIQTAKLLQVEKYTIEDIDILRGICYSLTPAQLQKLISQYQVADYESPIPQEILRYVADIVKKEAALSSSGNDSKGHEHSSSIFITPETGPFTDPFSLIKTRKFDQVEAYIPAWLSLPSTKRIVDLVAQ [chain 2 K259A, chain 2 R300E], the ratio to parent is roughly 0.59. Take chain 2 GVNATQINEELYRLLEDTEILNQEITEGLLKGFEVPDAGVAIQLSKRDVVYPARILIIVLSEMWRFGLTKQSESFLAQVLTTIQKVVTQLKGNDLIPSGVFWLANVRELYSFVVFALNSILTEETFKNGMTDEEYKEYVSLVTELKDDFEALSYNIYNIWLKKLQKQLQKKAINAVVISESLPGFSAGRTSGFLNKIFANTEEYTMDDILTFFNSIYWCMKSFHIENEVFHAVVTTLLNYVDAICFNELIMKRNFLSWARGLQLNYNVTRLEEWCKTHGLTDGTECLQHLIQTAKLLQARKYTIEDIDILRGICYSLTPAQLQKLISQYQVADYESPIPQEILRYVADIVKKEAALSSSGNDSKGHEHSSSIFITPETGPFTDPFSLIKTRKFDQVEAYIPAWLSLPSTKRIVDLVAQ [chain 2 E189R, chain 2 K259A, chain 2 V299A]: the ratio to parent is roughly 0.4.

The record behind these values is doi:10.1101/2025.03.24.645041 (2025).
